# Assay results from publication PMC9103184, “Kunitz-Type Peptides from Sea Anemones Protect Neuronal Cells against Parkinson’s Disease Inductors via Inhibition of ROS Production and ATP-Induced P2X7 Receptor Activation” (International Journal of Molecular Sciences, 2022).
# Experiments:
# P2X7R = assay: ATP-induced YO-PRO-1 uptake in Neuro-2a cells; assay type: cell-based, murine; conditions: 0.01–1.0 μM, 4 mM ATP
# Description: Figure 11 The effects of the peptides on ATP-induced Neuro-2a cell viability and activation of P2X7R. (a) Impact of the peptides on Neuro-2a cell viability in the presence of 4 mM ATP. The peptides were tested at concentrations of 0.01, 0.1, and 1.0 μM. Cells were incubated with peptides for 1 h at 37 °C, then for 48 h with ATP. (b) Effects of the peptides (0.01, 0.1, and 1.0 μM) on YO-PRO-1 uptake in Neuro-2a cells. ATP was used as a P2X7R agonist. A438079 (10 μM) was used as a standard inhibitor of P2X7R. The peptide effects were evaluated against the effects of ATP. The data are shown as means ± SE; *—p < 0.05 compared to the effect of ATP alone.
# For the uptake measurements of the large cationic dye YO-PRO-1, the peptides at final concentrations of 0.01, 0.1, and 1.0 μM were added to the culture medium with Neuro-2a cells and further incubated for 1 h at 37 °C with 5% CO2. Then, the cells were washed once with Hanks’ balanced salt solution (HBSS) (140 mM NaCl, 5 mM KCl, 0.8 mM MgCl2, 2 mM CaCl2, 10 mM glucose, 10 mM HEPES, pH 7.4) and filled with 180 μL of the same buffer. YO-PRO-1 (Sigma-Aldrich, St. Louis, MO, USA) was loaded into the wells to a final concentration of 5 μM, the cells were incubated for 15 min at 37 °C, then ATP was added to a final concentration of 4 mM and the plates were incubated for an additional 10 min. Then, the cells were washed three times with the buffer solution and the fluorescence intensity levels were measured with a PHERAstar FS plate reader (BMG, Germany) at λex = 480 nm and λem = 520 nm. A438079 (10 μM), a standard inhibitor of P2X7R, was used as positive control. The effectiveness of the peptides was evaluated relative to the control with ATP.
# Neuro-2a cells [1] = conditions: cited from earlier work
# Description: The peptides were tested for cell viability in in vitro 6-OHDA-, rotenone-, paraquat-, and MPP^+-induced Parkinson’s disease models. All peptides were non-toxic on Neuro-2a cells at a concentrations up to 10 µM (Figure S2). The viability of neurotoxin-treated cells was about 65% versus control (Figure 7).
# [2] = CD spectroscopy, secondary structural elements (Provencher–Glockner); assay type: physicochemical; set-up: unit not given here; conditions: deionized water, Provencher–Glockner method
# From the text: To calculate secondary structural elements of peptides, circular dichroism (CD) spectroscopy was applied. CD spectroscopy is a fast, well-established, and widely used analytical technique to study secondary structures of proteins and their changes in different environments. According to Figure 3, all spectra in the far UV region (190–240 nm) have similar profiles and are characterized by a positive maximum peak at 193 nm and negative minimum peaks at 202 and 225 nm. […] The peptides have an approximately equal content of secondary structural elements, while a slight increase in α-helixes and decrease in β-structure were found in HCIQ1c9 (Table 1), which might be reflected in the spatial structure and biological activity of the peptide.
# Circular dichroism (CD) spectra were recorded on a Chirascan-Plus CD spectropolarimeter (Applied Photophysics, Leatherhead, UK) in quartz cuvettes with an optical path length of 0.1 cm for the peptide spectrum region. The peptides were dissolved in deionized water ([…]) and incubated at temperatures ranging from 25 °C to 100 °C for 20–25 min before recording the CD spectra. The secondary structure elements were calculated using the Provencher–Glockner method using advanced Provencher calculation programs from the CDPro software package (Leatherhead, UK).
# Neuro-2a cells [3] = assay: Rotenone-induced ROS formation (H2DCF-DA); assay type: cell-based, murine; conditions: peptide 0.01 μM, 10 μM rotenone 1 h, means ± SE
# Description: Figure 8 Effects of the peptides on intracellular ROS and NO formation. The effects of the peptides on ROS formation into Neuro-2a cells treated by 600 μM paraquat (a) and 10 μM rotenone (b). The effects of peptides on NO formation into the cells treated by 600 μM paraquat (c) and 10 μM rotenone (d). Cells were incubated with peptides for 1 h at 37 °C, then 3 or 1 h with paraquat or rotenone, respectively. The data are shown as the means ± SE; *—p < 0.05, **—p < 0.01, #—p < 0.05 when comparing concentrations of the same peptide.
# Neuro-2a cells were incubated with peptides at concentrations of 0.01, 0.1, and 1 µM for 1 h. Then, paraquat (600 μM) or rotenone (10 µM) was added to each well and cells were incubated for 3 or 1 h, respectively. To study the ROS formation, the 2,7-dichlorodihydrofluorescein diacetate (H2DCF-DA) assay was performed according to the manufacturer’s instructions (Molecular Probes, Eugene, OR, USA). […]
# To determine the NO production, a 4-amino-5-methylamino-2′,7′-difluorofluorescein diacetate (DAF-FM) assay was performed according to the manufacturer’s instructions (Invitrogen, Carlsbad, CA, USA). […] In both cases, the fluorescence intensity was measured using a PHERAstar FS high-speed plate reader (BMG Labtech, Ortenberg, Germany) at λex = 485 nm and λem = 518 nm. […]
# serine proteinases = conditions: cited from earlier work
# From the text: A new peptide, HCIQ1c9, with Gly17Arg at position P1’ of the reactive site was also found in a combinatorial library of H. crispa Kunitz-type peptides and produced in E. coli. Thus, in this work four isoforms of Kunitz-type peptides with point a.a. substitutions were studied in various in vitro models.
substance,measurement,setting,value
"HCIQ2c1: recombinant Kunitz-type peptide from Heteractis crispa, UniProtKB ID A0A6B7FBD3 (IQGNICSEPKKVGRCRGSFPRFYFDSETGKCTPFIYGGCGGNGNNFETLHACRAICRA; UniProt A0A6B7FBD3 28-85, looked up)",inhibition of ATP-induced YO-PRO-1 uptake,P2X7R,"inhibited ATP-induced dye uptake, but their effects were not statistically significant"
same,increase in viability of 6-OHDA-treated cells,Neuro-2a cells [1],47%
same,protection against 6-OHDA compared with HCIQ4c7,Neuro-2a cells [1],stronger neuroblastoma cell viability against 6-OHDA than HCIQ4c7
same,Unordered Structure,[2],35.7
same,β-Turn,[2],19.0
same,α-Helix II,[2]; irregular structure,13.9
same,β-Structure II,[2]; irregular structure,6.9
same,β-Structure I,[2]; regular structure,17.4
same,α-Helix I,"[2]; regular structure, far UV 190–240 nm",7.1
same,α-Helix III,[2]; summary value,21.0
same,β-Structure III,[2]; summary value,24.3
same,decrease in rotenone-induced ROS level,Neuro-2a cells [3],22.0 ± 7.3%
same,interaction with serine proteinases,serine proteinases,"interact with several serine proteinases, including inflammatory ones"
